What was measured:
[1] = biological target: Hck (UniProt P08631); experiment: phosphorylation enrichment, bacterial display (enrichment ratio); higher = better substrate or ligand; peptides without Tyr show the background
[2] = tested on: c-Src; experiment: as above
[3] = biological target: EPHB1 (UniProt P54762); experiment: as above
[4] = tested on: Fer (mouse); experiment: as above
[5] = biological target: FGFR3 (UniProt P22607); experiment: as above
[6] = tested on: c-Abl (mouse); experiment: as above
[7] = biological target: EPHB2 (UniProt P29323); experiment: as above
[8] = biological target: Fyn (UniProt P06241); experiment: as above
[9] = biological target: FGFR1 (UniProt P11362); experiment: as above
[10] = biological target: Fes (UniProt P07332); experiment: as above
[11] = tested on: AncSZ; experiment: as above
[12] = biological target: MERTK (UniProt Q12866); experiment: as above
[13] = biological target: Jak2 (UniProt O60674); experiment: as above
[14] = biological target: SHP2-C SH2; experiment: SH2 binding enrichment of the phosphorylated peptide, bacterial display (enrichment ratio); higher = better substrate or ligand; peptides without Tyr show the background
[15] = biological target: Grb2 SH2 (UniProt P62993); experiment: as above
[16] = biological target: c-Src SH2; experiment: as above
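For SH2 binding enrichment of the phosphorylated peptide, bacterial display in this document: peptide library displayed on the E. coli surface as eCPX fusions, selected cells deep-sequenced, score is each peptide's frequency after selection divided by its frequency in the input.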
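For phosphorylation enrichment, bacterial display in this document: 11-residue human phosphosite peptides and single-mutation variants displayed on the E. coli surface, counted by deep sequencing, each peptide's frequency after selection divided by its frequency in the unselected input library; frequency after pTyr selection over input frequency; kinase dosed for 20-30% of maximal phosphorylation in three min.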

MERTK, sequence (Q12866 whole entry, looked up): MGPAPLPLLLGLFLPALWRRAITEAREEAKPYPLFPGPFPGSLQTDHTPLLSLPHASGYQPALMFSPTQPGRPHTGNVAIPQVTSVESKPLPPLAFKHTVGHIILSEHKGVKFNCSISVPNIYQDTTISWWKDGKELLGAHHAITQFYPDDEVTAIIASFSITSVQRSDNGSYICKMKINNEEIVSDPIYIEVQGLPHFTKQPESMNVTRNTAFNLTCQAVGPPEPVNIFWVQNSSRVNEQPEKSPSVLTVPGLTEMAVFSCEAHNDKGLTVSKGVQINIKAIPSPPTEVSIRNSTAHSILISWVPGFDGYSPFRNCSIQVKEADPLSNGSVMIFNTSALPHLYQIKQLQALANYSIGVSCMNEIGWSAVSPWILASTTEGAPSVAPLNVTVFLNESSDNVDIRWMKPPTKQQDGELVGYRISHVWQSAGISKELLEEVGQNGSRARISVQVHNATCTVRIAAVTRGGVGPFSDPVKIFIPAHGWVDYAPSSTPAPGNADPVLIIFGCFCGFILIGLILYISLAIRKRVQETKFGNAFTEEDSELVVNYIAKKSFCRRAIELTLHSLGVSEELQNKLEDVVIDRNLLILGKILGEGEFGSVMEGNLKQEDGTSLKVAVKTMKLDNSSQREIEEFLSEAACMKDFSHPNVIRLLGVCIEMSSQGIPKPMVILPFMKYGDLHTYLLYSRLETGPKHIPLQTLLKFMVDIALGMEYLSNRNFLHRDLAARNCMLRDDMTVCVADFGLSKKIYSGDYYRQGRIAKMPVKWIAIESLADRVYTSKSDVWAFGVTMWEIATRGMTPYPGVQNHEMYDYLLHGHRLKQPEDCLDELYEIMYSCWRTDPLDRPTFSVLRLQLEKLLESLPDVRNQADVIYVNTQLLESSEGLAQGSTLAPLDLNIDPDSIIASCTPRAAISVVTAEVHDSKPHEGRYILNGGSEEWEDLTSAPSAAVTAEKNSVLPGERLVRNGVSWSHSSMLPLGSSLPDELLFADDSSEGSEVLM
FGFR3, sequence (P22607 whole entry, looked up): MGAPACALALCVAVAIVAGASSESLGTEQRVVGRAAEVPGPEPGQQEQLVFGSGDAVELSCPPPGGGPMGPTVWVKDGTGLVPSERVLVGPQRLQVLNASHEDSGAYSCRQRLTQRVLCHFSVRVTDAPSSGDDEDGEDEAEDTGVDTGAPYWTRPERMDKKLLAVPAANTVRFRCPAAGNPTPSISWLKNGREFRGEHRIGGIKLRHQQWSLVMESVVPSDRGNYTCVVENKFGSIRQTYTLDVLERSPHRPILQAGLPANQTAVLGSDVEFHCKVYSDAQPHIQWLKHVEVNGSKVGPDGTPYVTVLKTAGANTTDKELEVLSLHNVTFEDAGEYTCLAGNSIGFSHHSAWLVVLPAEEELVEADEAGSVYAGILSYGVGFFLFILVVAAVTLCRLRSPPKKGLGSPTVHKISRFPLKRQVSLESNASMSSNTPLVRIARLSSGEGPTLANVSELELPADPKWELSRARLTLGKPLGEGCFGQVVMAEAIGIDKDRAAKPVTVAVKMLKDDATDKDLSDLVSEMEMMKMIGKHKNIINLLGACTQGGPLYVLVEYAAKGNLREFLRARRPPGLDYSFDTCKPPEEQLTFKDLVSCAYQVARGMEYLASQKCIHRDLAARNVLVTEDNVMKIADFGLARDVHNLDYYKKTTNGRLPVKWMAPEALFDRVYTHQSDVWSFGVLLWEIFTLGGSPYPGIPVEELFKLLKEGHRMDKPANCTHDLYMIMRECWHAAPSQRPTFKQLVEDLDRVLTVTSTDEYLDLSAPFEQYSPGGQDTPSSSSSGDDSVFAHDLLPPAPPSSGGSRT
Grb2 SH2, sequence (P62993 whole entry, looked up): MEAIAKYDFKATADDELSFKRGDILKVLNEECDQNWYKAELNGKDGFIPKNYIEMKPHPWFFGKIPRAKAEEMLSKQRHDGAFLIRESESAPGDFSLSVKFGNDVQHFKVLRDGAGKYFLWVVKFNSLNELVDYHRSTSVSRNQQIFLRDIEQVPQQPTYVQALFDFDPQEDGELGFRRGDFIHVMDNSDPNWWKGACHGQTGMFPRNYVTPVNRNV
EPHB2, sequence (P29323 whole entry, looked up): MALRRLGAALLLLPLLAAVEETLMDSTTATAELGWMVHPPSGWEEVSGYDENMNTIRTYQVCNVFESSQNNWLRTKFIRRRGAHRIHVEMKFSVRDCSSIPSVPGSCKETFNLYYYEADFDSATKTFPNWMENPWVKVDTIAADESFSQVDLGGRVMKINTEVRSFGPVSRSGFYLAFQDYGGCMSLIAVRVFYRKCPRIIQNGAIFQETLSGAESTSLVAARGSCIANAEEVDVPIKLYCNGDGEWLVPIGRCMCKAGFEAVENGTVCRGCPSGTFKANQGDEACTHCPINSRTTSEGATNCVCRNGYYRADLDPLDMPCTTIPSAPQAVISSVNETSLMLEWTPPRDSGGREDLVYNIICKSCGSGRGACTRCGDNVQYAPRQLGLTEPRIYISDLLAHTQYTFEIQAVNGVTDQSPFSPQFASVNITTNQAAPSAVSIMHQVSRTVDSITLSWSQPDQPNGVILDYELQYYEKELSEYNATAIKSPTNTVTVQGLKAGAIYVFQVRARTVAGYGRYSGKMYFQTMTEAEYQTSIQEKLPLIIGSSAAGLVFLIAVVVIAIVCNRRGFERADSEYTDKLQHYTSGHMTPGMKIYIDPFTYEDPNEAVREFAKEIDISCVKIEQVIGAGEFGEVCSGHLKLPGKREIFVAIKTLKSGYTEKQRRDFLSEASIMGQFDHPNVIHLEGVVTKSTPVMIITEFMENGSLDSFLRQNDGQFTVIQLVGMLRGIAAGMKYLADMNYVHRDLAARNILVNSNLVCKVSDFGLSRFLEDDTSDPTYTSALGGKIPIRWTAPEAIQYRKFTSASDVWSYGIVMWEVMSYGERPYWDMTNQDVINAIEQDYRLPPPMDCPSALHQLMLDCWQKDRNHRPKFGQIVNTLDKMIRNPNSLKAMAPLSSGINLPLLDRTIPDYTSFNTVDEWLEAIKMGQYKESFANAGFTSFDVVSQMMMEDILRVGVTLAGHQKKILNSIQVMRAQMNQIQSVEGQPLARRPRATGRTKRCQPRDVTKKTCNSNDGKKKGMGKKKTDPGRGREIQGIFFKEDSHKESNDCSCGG
Fes, sequence (P07332 whole entry, looked up): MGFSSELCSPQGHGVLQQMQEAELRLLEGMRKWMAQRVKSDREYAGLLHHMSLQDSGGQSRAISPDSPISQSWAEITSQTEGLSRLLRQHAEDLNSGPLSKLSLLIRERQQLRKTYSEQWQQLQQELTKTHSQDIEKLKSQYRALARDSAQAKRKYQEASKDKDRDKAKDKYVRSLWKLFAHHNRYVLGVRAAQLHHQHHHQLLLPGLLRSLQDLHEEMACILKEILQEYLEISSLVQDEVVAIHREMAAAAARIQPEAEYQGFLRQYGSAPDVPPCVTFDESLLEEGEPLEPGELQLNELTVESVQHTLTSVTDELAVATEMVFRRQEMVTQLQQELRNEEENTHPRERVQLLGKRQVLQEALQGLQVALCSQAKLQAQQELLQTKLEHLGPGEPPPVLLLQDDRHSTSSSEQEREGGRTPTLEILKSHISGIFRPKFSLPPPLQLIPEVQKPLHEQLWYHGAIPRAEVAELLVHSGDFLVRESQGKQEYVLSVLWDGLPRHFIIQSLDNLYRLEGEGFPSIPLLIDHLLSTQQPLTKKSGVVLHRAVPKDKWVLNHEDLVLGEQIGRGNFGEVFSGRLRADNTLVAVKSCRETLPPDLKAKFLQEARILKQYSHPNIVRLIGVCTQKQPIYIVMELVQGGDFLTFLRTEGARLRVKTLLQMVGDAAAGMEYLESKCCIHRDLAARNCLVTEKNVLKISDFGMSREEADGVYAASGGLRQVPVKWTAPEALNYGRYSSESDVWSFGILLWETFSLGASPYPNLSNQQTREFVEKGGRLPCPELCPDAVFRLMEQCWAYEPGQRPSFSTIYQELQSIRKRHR
FGFR1, sequence (P11362 whole entry, looked up): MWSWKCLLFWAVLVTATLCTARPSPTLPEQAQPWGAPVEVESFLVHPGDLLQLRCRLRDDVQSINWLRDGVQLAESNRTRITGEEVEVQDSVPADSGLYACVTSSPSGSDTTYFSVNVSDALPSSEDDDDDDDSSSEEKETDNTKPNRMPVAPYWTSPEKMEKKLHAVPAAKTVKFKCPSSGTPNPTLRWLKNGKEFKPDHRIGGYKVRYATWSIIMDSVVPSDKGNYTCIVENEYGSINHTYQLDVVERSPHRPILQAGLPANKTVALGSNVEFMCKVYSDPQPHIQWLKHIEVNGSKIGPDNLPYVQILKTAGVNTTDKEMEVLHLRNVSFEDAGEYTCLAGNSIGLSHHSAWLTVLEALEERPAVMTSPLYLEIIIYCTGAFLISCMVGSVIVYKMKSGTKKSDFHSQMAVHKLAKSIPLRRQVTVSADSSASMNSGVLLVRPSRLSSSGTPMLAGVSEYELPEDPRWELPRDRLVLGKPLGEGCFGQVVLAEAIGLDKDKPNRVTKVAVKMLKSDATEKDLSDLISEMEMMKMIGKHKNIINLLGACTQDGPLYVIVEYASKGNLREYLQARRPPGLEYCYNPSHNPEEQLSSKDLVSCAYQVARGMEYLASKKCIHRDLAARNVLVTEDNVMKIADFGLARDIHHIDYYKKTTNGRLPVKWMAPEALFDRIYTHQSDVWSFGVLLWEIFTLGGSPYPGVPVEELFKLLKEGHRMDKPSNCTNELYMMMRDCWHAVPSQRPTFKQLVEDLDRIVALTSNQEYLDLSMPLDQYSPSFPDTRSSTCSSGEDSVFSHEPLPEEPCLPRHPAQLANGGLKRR

| Sequence | phosphorylation enrichment [1] | phosphorylation enrichment [2] | phosphorylation enrichment [3] | phosphorylation enrichment [4] | phosphorylation enrichment [5] | phosphorylation enrichment [6] | phosphorylation enrichment [7] | phosphorylation enrichment [8] | phosphorylation enrichment [9] | phosphorylation enrichment [10] | phosphorylation enrichment [11] | phosphorylation enrichment [12] | phosphorylation enrichment [13] | SH2 binding enrichment [14] | SH2 binding enrichment [15] | SH2 binding enrichment [16] |
| --- | --- | --- | --- | --- | --- | --- | --- | --- | --- | --- | --- | --- | --- | --- | --- | --- |
| KPVDTYYDSTR [DYNC2H1_Y2230_M2227V] | 0.808 | 0.56 | 0.648 | 0.427 | 0.668 | 0.633 | 0.496 | 0.508 | 0.826 | 0.809 | 0.808 | 0.397 | 0.756 | 0.64 | 0.848 | 0.923 |
| KPYRVYCDMNT [FGB_Y269] | 0.691 | 0.562 | 1.53 | 0.68 | 0.789 | 0.779 | 0.783 | 0.6 | 0.51 | 1.13 | 1.04 | 0.492 | 1.1 | 0.658 | 1.03 | 1.04 |
| KQINDYVEKGT [SERPINA1_Y184] | 0.433 | 0.478 | 0.491 | 0.536 | 0.58 | 0.546 | 0.431 | 0.44 | 0.402 | 0.905 | 0.733 | 0.374 | 0.72 | 0.585 | 0.726 | 0.528 |
| KRLFAYKMLMA [TMC2_Y209_Q205R_YF] | 0.455 | 0.367 | 0.484 | 0.59 | 0.683 | 0.58 | 0.528 | 0.433 | 0.458 | 0.867 | 0.767 | 0.375 | 0.669 | 1.98 | 2.05 | 1.51 |
| KSDVVYTDWKK [ORM1_Y175] | 4.84 | 1.65 | 0.44 | 0.592 | 0.609 | 1.4 | 0.513 | 1.55 | 0.558 | 1.02 | 0.856 | 0.559 | 0.648 | 0.885 | 0.757 | 0.505 |
| KSPDSYQKILP [ATM_Y1415_L1420P] | 0.36 | 0.389 | 0.387 | 0.531 | 0.429 | 0.431 | 0.321 | 0.427 | 0.517 | 0.584 | 0.544 | 0.414 | 0.519 | 0.688 | 0.947 | 1.45 |
| KSRQIYDAYIM [GRK3_Y109_R104K] | 8.38 | 8.25 | 2.98 | 12.4 | 0.546 | 5.89 | 7 | 11.1 | 0.505 | 0.735 | 0.797 | 6.9 | 0.581 | 0.834 | 0.955 | 0.683 |
| KTSGNYLPVTG [WDR19_Y28_A30P] | 0.405 | 0.402 | 0.474 | 0.359 | 0.37 | 0.446 | 0.435 | 0.41 | 0.369 | 0.543 | 0.519 | 0.598 | 0.524 | 0.913 | 0.758 | 0.493 |
| KVALLYKPFFF [POLE_Y100_P99L_YF] | 0.82 | 1.67 | 0.516 | 1.39 | 0.704 | 0.921 | 0.606 | 0.827 | 0.496 | 1.17 | 1.15 | 0.772 | 1.12 | 1.62 | 1.78 | 1.49 |
| KVMANYMYKAG [MAML2_Y513] | 0.461 | 0.296 | 0.505 | 0.388 | 0.512 | 0.54 | 0.533 | 0.404 | 0.529 | 0.836 | 0.617 | 0.33 | 0.49 | 1.06 | 1.16 | 0.849 |
| KVMANYVFKAG [MAML2_Y513_M514V_YF] | 0.435 | 0.433 | 0.396 | 0.355 | 0.486 | 0.485 | 0.515 | 0.382 | 0.459 | 0.656 | 0.617 | 0.401 | 0.564 | 0.663 | 1.1 | 0.614 |
| KWRGQYDVAIE [BTK_Y425_K430E] | 0.509 | 0.437 | 0.441 | 0.505 | 0.481 | 0.537 | 0.531 | 0.39 | 0.448 | 0.774 | 0.631 | 0.424 | 0.708 | 0.823 | 1.01 | 3.07 |
| KYVKMCDNHQL [MYO9A_Y203_Y203C] | 0.432 | 0.429 | 0.442 | 0.379 | 0.547 | 0.512 | 0.632 | 0.407 | 0.532 | 0.546 | 0.635 | 0.447 | 0.491 | 0.921 | 1.03 | 0.75 |
| KYWREYILSLE [GPC3_Y299] | 0.461 | 0.856 | 0.541 | 0.366 | 0.752 | 0.677 | 0.569 | 0.427 | 0.499 | 1.05 | 1.03 | 0.39 | 0.974 | 1.71 | 1.48 | 1.37 |
| LAETSYVKVLE [MAGEA1_Y276] | 0.473 | 0.512 | 0.499 | 0.472 | 0.532 | 0.616 | 0.471 | 0.479 | 0.53 | 1.03 | 0.817 | 0.452 | 0.888 | 7 | 0.94 | 1.69 |
| LAIEWYVVVCK [RHO_Y136_R135W] | 1.36 | 0.852 | 1.8 | 0.847 | 2.21 | 2.27 | 1.33 | 0.972 | 1.45 | 3.21 | 2.49 | 0.676 | 1.88 | 0.583 | 1.05 | 0.5 |

From the supplement of paper PMC10065799, “High-throughput profiling of sequence recognition by tyrosine kinases and SH2 domains using bacterial peptide display” (eLife, 2023)
